The record followed here is PMC8514162.

Where two headings read alike, the source gives them in different places.

Assay in all cases: native MS
Assay [1] concerns the target haptoglobin Hp 1-1, tetramer H-L-L-H (human) (UniProt P00738).
The target of assay [2] is haptoglobin Hp 2-1 isoform HL(L*H)LH (human) (UniProt P00738).
The target of assay [3] is haptoglobin Hp 1-1, tetramer H-L-L-H (human) (UniProt P00738). The source holds these as a separate data set.
The target in assay [4] is haptoglobin Hp 2-1 isoform HL(L*H)2LH (human) (UniProt P00738).
Assay [5] deals with haptoglobin Hp 2-1 isoform HL(L*H)LH (human) (UniProt P00738). This is another data set of the same source.

Take “semi-hemoglobin dimer α*β* of hemoglobin (Hb) (from UniProt P69905 1-142; P68871 1-147) (complex)”: the stoichiometry N (α*β* dimers per HLLH) in assay [1] was determined as 2. For the same substance, the stoichiometry N (semi-Hb dimers per HL(L*H)LH) in assay [2] was 3. In assay [3], this substance had a stoichiometry N (Hb dimers per Hp molecule) of 2, a stoichiometry N (semi-Hb dimers per HLLH) of 2 and a stoichiometry N (α*β* dimers per HLLH) of 2. In assay [4], this substance showed a stoichiometry N (dimeric Hb subunits per HL(L*H)2LH) of 4. The substance further displayed a stoichiometry N (semi-Hb dimers per HL(L*H)LH) in assay [5] of 3.
